In the assay the target is Myc-tagged Bfl-1 (human) (UniProt Q16548). Nature of the assay: fluorescence polarisation; competition: 0–10 μM unlabeled peptide titrated into 50 nM c-myc-tagged receptor plus 25 nM fluoresceinated BIM; 25 mM Tris pH 7.8, 50 mM NaCl, 1 mM EDTA, 5% DMSO, 0.001% v/v Triton-X; 23°C, 3 hr; fit to a complete competitive binding model. (Polarisation of emitted light reports the rotation of a fluorescent probe.)

The Ki is a dissociation constant, usually derived from enzyme kinetics or from competition with a known ligand.

Myc-tagged Bfl-1 (human), sequence (Q16548 whole entry): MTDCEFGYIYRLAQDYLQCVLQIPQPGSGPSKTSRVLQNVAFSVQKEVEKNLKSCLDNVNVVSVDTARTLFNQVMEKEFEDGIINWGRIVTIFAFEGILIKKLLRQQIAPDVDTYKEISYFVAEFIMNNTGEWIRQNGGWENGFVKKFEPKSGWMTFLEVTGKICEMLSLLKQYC

As for “BIM BH3 peptide (unlabeled) (peptide; other documents disagree on this pair)”, the inhibitory constant (Ki) was under 0.1 nM.

For the origin of these results see publication PMC5464773.
